Assay results from the DeepSol protein solubility set.

Assay: soluble on expression in E. coli; label from the status in PepcDB or PDB records

Soluble on expression in E. coli, soluble:
MNYNPEEQFRCTIIRGKAKNMLDNLLPAYANIIDDICPCDKASFVKDFNNRLIEILGEETTKKTLDNHRTEIAGKLFGMFYEDDEVIFPSGRTNKYIEDSDQPAFFKDICFKFQFPNGMDKLDKVIEKVGAKIQIRQFPYILQVLLTADNNNIQLSKDDIAYYVLNSLQVLQGKIKPIEVIEKIIEDRSNDITKKVRHPGKETSYSMQHIREQLNYLELANLIRIDGNLVKLNYREAENINYIAQFWGNKPEFNAYKYDFTSEDDKKSFFKDWQQYYSNVNSHKS, MPARRSAARIDFAGSPRPTLGVEWEFALVDSQTRDLSNEATAVIAEIGENPRVHKELLRNTVEIVSGICECTAEAMQDLRDTLGPARQIVRDRGMELFCAGTHPFARWSAQKLTDAPRYAELIKRTQWWGRQMLIWGVHVHVGIRSAHKVMPIMTSLLNYYPHLLALSASSPWWGGEDTGYASNRAMMFQQLPTAGLPFHFQRWAEFEGFVYDQKKTGIIDHMDEIRWDIRPSPHLGTLEVRICDGVSNLRELGALVALTHCLIVDLDRRLDAGETLPTMPPWHVQENKWRAARYGLDAVIILDADSNERLVTDDLADVLTRLEPVAKSLNCADELAAVSDIYRDGASYQRQLRVAQQHDGDLRAVVDALVAELVI, MPDSMSEQLRRDMQCEGLLECFHGLKELDKECFRALVEAEEPLTVDELADAVDRERSTAYRAVQRLLQTGFIEKDQINYDQGGYYHVYSPTDPSQIADEMQRMLNDWYAKMGQLIQEFENKYEQSESTAPTVES

Soluble on expression in E. coli, not soluble:
MNTEIEIIATDKVSNQAAMRSVLVMEQWGNGETYSEERWVERGRQAVRQTMEGMFELGRALIILKEHTEHGRFMEIVKSQFGLGIAETSRLMSATRRFATPQMQKAAPKLMDLGKSKLLELLVEEDVTLVGLAEGEEVNGMTFDDVDRMTVRELRVALRESRENLAAKDEVMKTKTAKIDELAEKLAKKQTVVREPKAEDVGSELAMQLTSLEVGIRSQVSRLKDLFDQLNAHSEAHGISHQAKMVGTLNQIILDCEQLRESYALPTEAPTDNVPEWLGGETGEGDESGND, MNTGPYYFVKNLPLHELITPEFISTFIKKGSCYALTYNTHIDEDNTVALLPNGKLILSLDKDTYEETGLQGHPSQFSGRKIMKFIVSIDLMELSLNLDSKKYERISWSFKEKKPLKFDFLLAWHKTGSEESTMMSYFSKYQIQEHQPKVALSTLRDLQCPVLQSSELEGTPEVSCRALELFDWLGAVFSNVDLNEPNNFISTYCCPEPSTVVAKAYLCTITGFILPEKICLLLEHLCHYFDEPKLAPWVTLSVQGFADSPVSWEKNEHGFRKGGEHLYNFVIFNNQDYWLQMAVGANDHCPPLEHHHHHH, MNTKKFAKVNEQIPGPKAASLLERRQNIVPKGVSNGIPTFVQSANGALVTDVDGNQYIDFAGAIGTINVGHCHPAVKEALHKQVDQYIHTGFNVMMYEPYIELAEKLAALAPGSFDKQVLFLNSGAEAVENAVKIARKYTKRPGIIAFSKGFHGRTLMTMTMTSKVKPYKFGFGPFAPEVYKAPFPYEYRCPEGLTEEQYDDFMIEEFKNFFISEVAPETIAAVVMEPVQGEGGFIVPSKKFAQEVRNICSEHGILFVADEIQTGFSRTGKYFAIDHYDVVPDLITVSKSLGAGVPISGVIGRKEIMNESAPGELGGTYAGSPLGCAAALAVLDVIEKENLNDRAIELGKVVMNRFEEMKNKYNCIGDVRGLGAMCAFELVQDRKTKTPDKTLTANLCTEANKRGLLLLSAGTYGNVIRVLMPLVITDEQLEEGLTIIEESLQICYEKANTARV, MNTMEEKYILSDRGKVYYWIKESNSVFAKNLIFLPGLTANHHLFDFQIQYFSKNHNVLVWDAPAHGKSRPYLDFSYSNLVEELKVILDKQNMKKVVLIGQSAGGFVAQSFIVKYPNMVEGLMMIGTCPYGTDYYSKSDIFWLKQTEWMLKLFPDKLLRNIISKMCGATSEGRRSMLKMLEGYEKKELCHLMYLGFAGFIPEIQDLNIHCPVCLVVGDKDKTGKVRKYNEQWHNKTGYPLHIIKNASHNVNVDKPNELNQIMDIFIKQLNI, MNTNNALMQRRHNAVPRGVGQIHPIFAERAENCRVWDVEGREYLDFAGGIAVLNTGHLHPGIVSAVEAQLKKLSHTCFQVLAYEPYLALCERMNQKVPGDFAKKTLLVTTGSEAVENAVKIARAATKRSGAIAFSGAYHGRTHYTLSLTGKVHPYSAGMGLMPGHVYRALYPCPLHNISDDDAIASIERIFKNDAAPEDIAAIIIEPVQGEGGFYAASPAFMQRLRALCDQHGIMLIADEVQSGAGRTGTLFAMEQMGVAADITTFAKSIAGGFPLAGVTGRADVMDAIAPGGLGGTYAGNPIACAAALAVLDIFEQENLLQKANTLGKTLRDGLMEIAETHREIGDVRGLGAMIAIELFENGDPGKPNAALTADIVTRAREKGLILLSCGPYYNILRILVPLTIEASQIRQGLEIIAQCFDEAKQA, MNTSSSADPKPDASLSSSNSKIKKEEDLEAMKEAIAQLLQGVEELTQDKLNDAKSRKKLEESMEELKSQNLDLKAQLDFQMAHFQSLFEAHEKEIADLKARQYQNNSIAAQTPPPDVRQELRSFPMVKHSRENPELRNVPVLIFSRCMLCETDEHTIHSCPIYNTNSKRYEGFKDKGLCRSCALPANSDGSATCGRNCMFSRRRCTNCWDKGGDKSYVYHLEFTCRWDERRSQRTSPFSTDHSDRSSKHPRISFDECENHHY, MNTTEFDGISHAEGLCDKEFIGKAISYLYRYGQIYIGKKIEPYGIGSGQFPFLMRLYREDGINQESLSDYLKIDKGTTARAIQKLVDEGYVFRQRDEKDRRSYRVFLTEKGKKLEPDMKKIASEWGEILFSSFDDRQRREITNSLEIMFENGLKIM, MNTVFSNIANAKITEKSLNAVWMDLFKSADEVLMATGYVSNDAVVELHKILELNDHIQKIDLLVGMHYLEGFSHLQYDSLCKLNDFLRHEKRGAVYVSPFVKFHGKMYSFKNYQKINGLIGSANLTCFWDSTERTYETMLHLNGKPAQILQADIQSTIHKLGKNIQEVERPSKFIEHNSHLENCLGVQKIAPEQIRQLFAQTSEYHFSIPAKTEEKSNLNVFFGEGRRDKRGFVKPRPWYEVELIVSKDITSQEGYPVLKSFTVITDDGWQFQCKTSGDYSKNFRSENDLKTLGKWIKGRLESHGCLQNNEKITHETLREYGNDHFELRSTDNPDVWLLSFKGKN, MNVETIREYCLSKKGVTESFPFDDVSLVMKVLDKMFALIDLEGANSISLKCDPERAIELREHYAGIEGAYHFNKKYWNGVYFDRDVDDKLIKELVDHSYEEVIKKFTKKLRAEYDALP, MNVSFSTPVQNSTASRLALIQQAAARSGALPPAGQYRGSKLSPFDVSQMSGVSISMVERAKINGPEFVEELEWLRQQTTSRCFLDAEMWTNEILAHLPDKWCAPNTLNLYNQVSELVLDNTRSPMASPASNSLYAPGEDQMPTVKRNHTSRFAQSLIKNKEFRRAAFFLEKTMNGNKLDHFLHFRCLFLAYYQEHLENDAEGIERKTSFAEERSPFSLLYQRMEDKKLRENEDVWFEYLMGLLEVELGLKDLAEKSFRNVVIREPRIWPAWEALSRLIADIEDADKFVTSAEVKSLWMGDWFMTLVLQRFHQHSMAIQKAEQLVTRGMTGLPMIITKIAACSNARHDHDQAISNFEDVRKADPYRLGDLHLLSDSLYIRNDQKKLSTLAIEVYKVHKFRWETCCIVANYHAIRRDSEHAIKFFQRALRLNPGLAALWVLIGHEFMEMKNNAAACVSYRRAIEIDPADHRGWYGLGQMYDIMKMPAYALFYYQEAQKCKPHDSRLLVALGDIYSKLNRIEDAEKCFTGAYLFGDVEGNALWSLAKLHERYSDDNKAAQAFEVFLVVYELVTSAEEKIIYAIAFLANHFFKIEDFDKASEYATKCLAFETLCQEGNRLFREIAKIQARESRLPVEEAPGPSNASAAGGQEAMDTEEAPQEGGEEEMSEGEDDFSF, MNYATTPTAFVESKLNSMPGDALGYLRRLDQRWQALCQGDLPPIAEVAQKVNTNLGEADFDAVICGGTLGILLAASLQIRGWQVVVIERGKLQGRAQEWNISRQELQTFVELELLTSEELETAIASEYNPGRIAFHGGQEFWIKNVLNVGIDPIYLLEKLKQKFLQAGGKLLEHSAFQKAIIHSDGVAISYQHDGENQVERKLTSRLLIDAMGHGSPLVNQARQGEIPDGVCLVVGSCAQGYSDNETGDLIATTTGITNHCQYFWEAFPARDGRTTYLFTYVDVHPERISLEFFFQEYFRLLPEYQKINLDQLQWQRFLSGFFPAYKSSPLHFSWGRVLAVGDSAGSQSPVSFGGFGAMVRHLKRLTNAIGEALAGDYLAAEDLALLQPYQPNIGVTWLFQQTMGVKVGQTADPEQINRLMNAVFAVMDRQGQEVMEPFLQDVIQWSGLTQTLPRVNPLIVLPLLPQIGLPALMEWLGHYANLAGYSLTYPLAKNLLFTNPSFEQKRRLEAWYYGSGYDFHH, MNYIGSKYKLIPFIKENIHAVVGDNLSGTIFCDLFAGTGIVGRAFKKAVNKVISNDLEYYSFVLNQNYIGNIQEIPNQEELINEINSVALKKGFIYSYYSLGGSSRQYFSETNAQKIDAMRLKIEELKLSQNIDNCTYYFLLASLLESADKVANTASVYGAFLKRLKKSAQKELILKGADFDLSLNANEVYQQDASELIGKISGDILYLDPPYNARQYGANYHLLNTIAIYTPFAPKGKTGLPSYQKSSFCSRAKILNAFENLIKTARFKYIFLSYNNEGLMSETEIGNILKKYGTYSLMTKTYMRFKADNKRTHKAAHTKECLHILIK, MPANKAKYKIIKQQVKNNILSARYKIGDRLPTESDFMAEFDVSRFTIRRAIDELVNENFVRRVQGNGMYIKDWHKVNKADEDLRTIAVITTHVADYIFPNIINAIDKVISDAGYSLILANTHNDPKRERDNLLRLLKLKPSAWIIEPTQSAVNRENLDLYQQIKKLDVPAVFINSSYPGIGFPCLKTDDRGSLSELTNYLFSIGHRRIMGVFQIDDIQGVERMKGFADAYLGHPYFSDRQTTIMYKSTDDYDEIFTRITNFYKNQTVDKPDAIICYNDQLAIALIDNLKEQGWKIPEDISIIGFDDYNISRYITPTLTTLSHPKSQMGRDAGKMILNLIDNKAVKSITYYPELVLRKSVMPI, MPAPDPMRGDPPHPAPPRLRSPLDPTSGDPLHPAPPRLRSPLDPTSGDPLHPAPPRLRSPLDPTSGDPLHPAPPRLRSPLVLLDGASMWFRSFFGVPSSITAPDGRPVNAVRGFIDSMAVVITQQRPNRLAVCLDLDWRPQFRVDLIPSYKAHRVAEPEPNGQPDVEEVPDELTPQVDMIMELLDAFGIAMAGAPGFEADDVLGTLATRERRDPVIVVSGDRDLLQVVADDPVPVRVLYLGRGLAKATLFGPAEVAERYGLPAHRAGAAYAELALLRGDPSDGLPGVPGVGEKTAATLLARHGSLDQIMAAADDRKTTMAKGLRTKLLAASAYIKAADRVVRVATDAPVTLSTPTDRFPLVAADPERTAELATRFGVESSIARLQKALDTLPG, MPCAETFGSEYFLAQGSPVNSTATPPEPLPPFLQPGDRVLLFDGVCKLCNASVRFVIRHDSQRRIKLASVQSPQGQALLAWFGLPTEQFDSVVLIEEGRLSQRSDAFIRLMAQLPAPWRWLRLLRGVPRPLRDWVYDLIARNRYRLFGRLDVCLLPSPDHQGRFLDDPSLEHHHHHH, MPDEATKGSATIPPSSSTPFWWREKRSPKVQYHRSAYPRSRSSDADCRQGNEGMNFIAKHFFEYQSFMNIPHKAVHLHKVPASQAGTDPSMGWAPKNMLKAGKHQPAPGARANRVHRDPRPNGTKYGRAGKHEHREWGDRHGELRDEKVACHKDAWTKFLANDDQGARTAFECDFEDRVLATEEETLQEKLCRTSPEAMNLNALYAAANKAVSCGGDVCELLTILTYAPTVQFVTTTVKKAKALPYNNAPFARIMLFEGRRLMEQKQTTVNPSLVHKSSVDGSKPSSSSASTSSNDNPSDVSFSESFLFHVPPTKLDRSHIVIELYDHDDEGGLQKIGHCVIGRLVDGTGNAHWIQMVRQHGLPVCMWHKIGHN
